Patent publication US20220010003A1 (Boehringer Ingelheim, published 2022)

Columns and labels:
NB1246 (V295A) = target: T1, NB1246 (V295A) (human, UniProt Q15063 22-631, limits assumed); test: ELISA on alanine variants of POSTN EMI-FAS4, second screen
T1 construct: also called POSTN EMI-FAS4 V295A
T1 sequence: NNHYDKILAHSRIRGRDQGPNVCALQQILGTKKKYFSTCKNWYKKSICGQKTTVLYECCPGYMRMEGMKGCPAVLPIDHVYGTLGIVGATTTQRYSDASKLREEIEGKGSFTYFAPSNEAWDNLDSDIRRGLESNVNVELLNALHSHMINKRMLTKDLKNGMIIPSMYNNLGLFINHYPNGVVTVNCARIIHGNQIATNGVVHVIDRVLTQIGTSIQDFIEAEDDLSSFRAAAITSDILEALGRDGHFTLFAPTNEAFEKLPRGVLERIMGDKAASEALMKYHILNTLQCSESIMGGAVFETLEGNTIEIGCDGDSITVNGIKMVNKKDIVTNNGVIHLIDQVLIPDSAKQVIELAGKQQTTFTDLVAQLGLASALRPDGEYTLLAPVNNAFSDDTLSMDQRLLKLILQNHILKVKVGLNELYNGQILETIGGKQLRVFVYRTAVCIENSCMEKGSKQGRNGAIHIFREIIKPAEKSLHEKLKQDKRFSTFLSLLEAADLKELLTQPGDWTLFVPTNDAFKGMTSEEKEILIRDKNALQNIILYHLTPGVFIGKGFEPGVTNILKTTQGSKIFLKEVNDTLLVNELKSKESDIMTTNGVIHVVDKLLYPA

[1] = target: T2, recombinant mouse periostin (mouse, UniProt Q62009-2 24-811, limits assumed); test: cell-based or functional assay
T2 sequence (looked up): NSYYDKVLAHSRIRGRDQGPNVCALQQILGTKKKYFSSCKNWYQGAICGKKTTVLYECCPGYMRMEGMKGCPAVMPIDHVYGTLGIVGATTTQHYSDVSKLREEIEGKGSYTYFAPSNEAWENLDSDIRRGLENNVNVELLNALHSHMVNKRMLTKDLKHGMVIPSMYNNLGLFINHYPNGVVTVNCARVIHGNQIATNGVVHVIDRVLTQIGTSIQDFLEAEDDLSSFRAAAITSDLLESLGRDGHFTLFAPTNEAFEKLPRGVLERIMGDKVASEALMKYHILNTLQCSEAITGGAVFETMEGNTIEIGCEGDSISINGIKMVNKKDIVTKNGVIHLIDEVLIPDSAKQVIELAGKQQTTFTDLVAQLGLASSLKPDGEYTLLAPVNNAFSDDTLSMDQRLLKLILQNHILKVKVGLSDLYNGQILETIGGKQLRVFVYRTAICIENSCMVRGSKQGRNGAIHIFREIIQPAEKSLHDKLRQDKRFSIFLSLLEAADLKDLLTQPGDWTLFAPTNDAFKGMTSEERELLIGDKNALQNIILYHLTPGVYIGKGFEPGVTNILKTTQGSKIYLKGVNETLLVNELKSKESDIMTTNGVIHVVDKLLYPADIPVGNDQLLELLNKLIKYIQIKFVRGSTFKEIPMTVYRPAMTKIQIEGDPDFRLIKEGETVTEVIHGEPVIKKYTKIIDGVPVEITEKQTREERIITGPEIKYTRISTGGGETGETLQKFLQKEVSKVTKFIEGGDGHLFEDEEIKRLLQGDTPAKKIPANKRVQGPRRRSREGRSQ

[2] = target: T3, recombinant human periostin (human, UniProt Q15063 22-836); test: cell-based or functional assay
T3 sequence: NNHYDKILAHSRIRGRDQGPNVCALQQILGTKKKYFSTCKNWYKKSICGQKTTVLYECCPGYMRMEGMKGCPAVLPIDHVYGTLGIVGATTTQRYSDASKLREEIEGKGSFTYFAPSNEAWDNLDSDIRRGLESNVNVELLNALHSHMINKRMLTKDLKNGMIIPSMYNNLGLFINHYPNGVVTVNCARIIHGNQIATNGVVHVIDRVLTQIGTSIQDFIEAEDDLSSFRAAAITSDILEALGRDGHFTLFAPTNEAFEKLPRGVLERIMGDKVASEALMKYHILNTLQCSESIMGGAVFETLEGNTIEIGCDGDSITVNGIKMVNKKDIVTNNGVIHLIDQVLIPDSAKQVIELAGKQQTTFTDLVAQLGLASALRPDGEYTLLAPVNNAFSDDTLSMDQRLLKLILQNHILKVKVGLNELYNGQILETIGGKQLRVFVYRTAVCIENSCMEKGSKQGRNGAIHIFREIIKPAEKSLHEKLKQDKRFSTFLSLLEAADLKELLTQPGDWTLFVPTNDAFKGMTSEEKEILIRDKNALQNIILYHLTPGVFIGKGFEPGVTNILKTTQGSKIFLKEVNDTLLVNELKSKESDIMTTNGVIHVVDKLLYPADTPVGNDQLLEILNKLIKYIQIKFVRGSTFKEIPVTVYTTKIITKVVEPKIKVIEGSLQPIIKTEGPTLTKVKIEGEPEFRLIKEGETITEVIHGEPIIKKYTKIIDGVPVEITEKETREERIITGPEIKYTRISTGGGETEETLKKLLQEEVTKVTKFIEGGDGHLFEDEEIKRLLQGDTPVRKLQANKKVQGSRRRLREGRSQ

[3] = target: T2, recombinant mouse periostin; test: binding ELISA, periostin coated
[4] = target: T4, recombinant rat periostin (rat, UniProt A0A8I6AHK0 24-838); test: BLI (Octet Red); Table 6 ties the high end of the range to rat periostin
T4 construct: also called RatPOSTN
Procedure: NB0828's binding affinity was determined across human, mouse, rat, and cyno species. NB0828 affinities were determined using the octet red system. Briefly, anti-human Fc (AHC) biosensors were used to capture NB0828, followed by association of titrating amounts of either recombinant human, mouse, rat, or cyno periostin (100 nM→0 nM; 1:2 dilutions). Recombinant human, mouse, and rat periostin was purchased commercially from R&D systems, whereas cyno periostin was made internally.

- loss from the max signal (NB1246 (V295A)): > 50%
- CAA IC50 [1]: 26 nM
- CAA IC50 [2]: 24.3 nM
- EC50 [3]: 0.15 nM
- Kd [4]: 0.5 nM
B1: NB0828 (antibody, V domains shown)
VH: QVQLVQSGAEVKKPGASVKVSCKASGYTFTSYGISWVRQAPGQGLEWMGWISAYNGNTNYAQKLQGRVTMTTDTSTSTAYMELRSLRSDDTAVYYCARDMLVVPFDYWGQGTLVTVSS
VL: QSVLTQSSSASGTPGQTVTVSCSGSSSDIGSNRVNWYQQLPGTAPKLLIYSNDQRPSGVPDRFSGSKSGTSASLAISGLQSADEADYYCAAWDDSLSTYVFGSGTKVTVL
